The numbers were not newly measured in article PMC2853182, which cites them from elsewhere.

By pKd is commonly meant the negative decadic logarithm of the Kd, by convention in mol/L.

pKd: −log10 of the molar value.

The data set addresses Protective antigen (PA) (Bacillus anthracis) (UniProt P13423).

As for “CMG2 soluble domain (from UniProt P58335)”, the pKd was 8.70.
